Biological target: T1, hen egg white lysozyme (hen, UniProt P00698 19-147, biotinylated (HEL-b); sites not stated)
T1 construct: also called lyzozyme; HEL-b (biotinylated)
Assay: yeast display selection

T1 sequence (P00698 19-147 limits assumed): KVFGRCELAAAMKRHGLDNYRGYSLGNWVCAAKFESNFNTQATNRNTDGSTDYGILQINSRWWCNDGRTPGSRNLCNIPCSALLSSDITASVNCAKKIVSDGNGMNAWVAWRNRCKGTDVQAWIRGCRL

binding result	Binder
binds	SEQ ID NO 47 (designed binder) VSDVPRDLEVVAATPTSLLISWDAPAVTVRYYRITYGEERGYERSRQEFTVPGSKSTATISESYRYVDYTITVYAVTGRGESPASSKPISINYPHSY
binds	SEQ ID NO 109 (designed binder) VSDVPRDLEVVAATTTSLLISWDAPAVTVRYYRITYGESGRGAQEFTVPGSKSTATISGLGPPVDYTITVYAVTGRGESPASSKPISINYRSQH
binds	SEQ ID NO 44 (designed binder) VSDVPRDLEVVAATPTSLLISWDAPAVTVRYYRITYGESSLGSEQEFTVPGSKSTATISEYAPYVDYTITVYAVTGRGESPASSKPISINYYGPG
binds	SEQ ID NO 111 (designed binder) VSDVPRDLEVVAATPTSLLISWDAPAVTVRYYRITYGESEGGSSRSQEFTVPGSKSTATISRSYQPVDYTITVYAVTGRGESPASSKPISINYGSYP
binds	SEQ ID NO 46 (designed binder) VSDVPRDLEVVAATPTSLLISWDAPAVTVRYYRITYGEYRSYRSERQEFTVPGSKSTATISRGYRAVDYTITVYAVTGRGESPASSKPISINYSYRY
binds	SEQ ID NO 103 (designed binder) VSDVPRDLEVVAATPTSLLISWDAPAVTVRYYRITYGESREGGQEFTVPGSKSTATISSYQSEVDYTITVYAVTGRGESPASSKPISINYARSR
binds	SEQ ID NO 104 (designed binder) VSDVPRDLEVVAATPTSLLISWDAPAVTVRYYRITYGEGQQGGQEFTVPGSKSTATISAYRGPVDYTITVYAVTGRGESPASSKPISINYYGSY
binds	SEQ ID NO 105 (designed binder) VSDVPRDLEVVAATPTSLLISWDAPAVTVRYYRITYGEGRRYGQEFTVPGSKSTATISELLSEVDYTITVYAVTGRGESPASSKPISINYSLRY
binds	SEQ ID NO 45 (designed binder) VSDVPRDLEVVAATPTSLLISWDAPAVTVRYYRITYGEQAQEEGQEFTVPDSKSTATISAHRSYVDYTITVYAVTGRGESPASSKPISINYYYGE
binds	SEQ ID NO 114 (designed binder) VSDVPRDLEVVAATPTSLLISWDAPAVTVRYYRITYGEQRYSYYGQQEFTVPGSKSTATISSGRSSVDYTITVYAVTGRGESPASSKPISINYRRSY
binds	SEQ ID NO 115 (designed binder) VSDVPRDLEVVAATPTSLLISWDAPAVTVRYYRITYGERPASYRAAQEFTVPGSKSTATISSYSYSVDYTITVYAVTGRGESPASSKPISINYRRSG
binds	SEQ ID NO 88 (designed binder) VSDVPRDLEVVAATPTSLLISWDAPAVTVRYYRITYGESSSSRRQEFTVPGSKSTATISGEESYVDYTITVYAVTGRGESPASSKPISINYAEER
binds	SEQ ID NO 110 (designed binder) VSDVPRDLEVVAATPTSLLISWDAPAVTVRYYRITYGESSGYAERGQEFTVPGSKSTATISSPGARVDYTITVYAVTGRGESPASSKPISINYSSLG
binds	SEQ ID NO 98 (designed binder) VSDVPRDLEVVAATPTSLLISWDAPAVTVRYYRITYGERSSRSQEFTVPGSKSTATISHSREPVDYTITVYAVTGRGESPASSKPISINYQYRY
binds	SEQ ID NO 99 (designed binder) VSDVPRDLEVVAATPTSLLISWDAPAVTVRYYRITYGESQSHSQEFTVPGSKSTATISHPSRPVDYTITVYAVTGRGESPASSKPISINYPRSE
binds	SEQ ID NO 101 (designed binder) VSDVPRDLEVVAATPTSLLISWDAPAVTVRYYRITYGEESSRPQEFTVPGSKSTATISQARARVDYTITVYAVTGRGESPASSKPISINYRRYR
binds	SEQ ID NO 106 (designed binder) VSDVPRDLEVVAATPTSLLISWDAPAVTVRYYRITYGESGYRYQEFTVPGSKSTATISGYREHVDYTITVYAVTGRGESPASSKPISINYQESY
binds	SEQ ID NO 89 (designed binder) VSDVPRDLEVVAATPTSLLISWDAPAVTVRYYRITYGEGRHPSYQEFTVPGSKSTATISPSYSRVDYTITVYAVTGRGESPASSKPISINYSRER
binds	SEQ ID NO 48 (designed binder) VSDVPRDLEVVAATPTSLLISWDAPAVTVRYYRITYGEQSGLSEHQEFTVPGSKSTATISSLRYYVDYTITVYAVTGRGESPASSKPISINYAYEY

binding result	Binder
binds	SEQ ID NO 94 (designed binder) VSDVPRDLEVVAATPTSLLISWDAPAVTVRYYRITYGEYEHYYQEFTVPGSKSTATISPYAGGVDYTITVYAVTGRGESPASSKPISINYSESE
binds	SEQ ID NO 112 (designed binder) VSDVPRDLEVVAATPTSLLISWDAPAVTVRYYRITYGEQYYHQGRRQEFTVPGSKSTATISRYGGSVDYTITVYAVTGRGESPASSKPISINYYAYG
binds	SEQ ID NO 43 (designed binder) VSDVPRDLEVVAATPTSLLISWDAPAVTVRYYRITYGEEAYRSEGQEFTVPGSKSTATISSYGQGVDYTITVYAVTGRGESPASSKPISINYEGSE
binds	SEQ ID NO 87 (designed binder) VSDVPRDLEVVAATPTSLLISWDAPAVTVRYYRITYGEAYGESYQEFTVPGSKSTATISQSPEYVDYTITVYAVTGRGESPASSKPISINYASEY
binds	SEQ ID NO 113 (designed binder) VSDVPRDLEVVAATPTSLLISWDAPAVTVRYYRITYGERRGQYGSSQEFTVPGSKSTATISSPEGSVDYTITVYAVTGRGESPASSKPISINYSRSE
binds	SEQ ID NO 100 (designed binder) VSDVPRDLEVVAATPTSLLISWDAPAVTVRYYRITYGEEEEHPQEFTVPGSKSTATISSPQRGVDYTITVYAVTGRGESPASSKPISINYYSYY
binds	SEQ ID NO 107 (designed binder) VSDVPRDLEVVAATPTSLLISWDAPAVTVRYYRITYGESGRRGQEFTVPGSKSTATISSPSLEVDYTITVYAVTGRGESPASSKPISINYRSGY
binds	SEQ ID NO 102 (designed binder) VSDVPRDLEVVAATPTSLLISWDAPAVTVRYYRITYGEYGALEQEFTVPGSKSTATISRSQAEVDYTITVYAVTGRGESPASSKPISINYASYY
binds	SEQ ID NO 49 (designed binder) VSDVPRDLEVVAATPTSLLISWDAPAVTVRYYRITYGERGSEAERQEFTVPGSKSTATISQAYYGVDYTITVYAVTGRGESPASSKPISINYSYAS
binds	SEQ ID NO 50 (designed binder) VSDVPRDLEVVAATPTSLLISWDAPAVTVRYYRITYGESLYYHQEFTVPGSKSTATISASYYAVDYTITVYAVTGRGESPASSKPISINYSYHL
binds	SEQ ID NO 116 (designed binder) VSDVPRDLEVVAATPTSLLISWDAPTVTVRYYRITYGEPQASHRPYQEFTVPGSKSTATISSRSQSVDYTITVYAVTGRGESPASSKPISINYLREL
binds	SEQ ID NO 90 (designed binder) VSDVPRDLEVVAATPTSLLISWDAPAVTVRYYRITYGEGERPYQEFTVPGSKSTATISYAHYSVDYTITVYAVTGRGESPASSKPISINYERRS
binds	SEQ ID NO 108 (designed binder) VSDVPRDLEVVAATPTSLLISWDAPAVTVRYYRITYGEPRRRYQEFTVPGSKSTATISPGGQSVDYTITVYAVTGRGESPASSKPISINYGRGY
binds	SEQ ID NO 93 (designed binder) VSDVPRDLEVVAATPTSLLISWDAPAVTVRYYRITYGEYPREYQEFTVPGSKSTATISRYGYHVDYTITVYAVTGRGESPASSKPISINYSGYS
binds	SEQ ID NO 95 (designed binder) VSDVPRDLEVVAATPTSLLISWDAPAVTVRYYRITYGEYEYARQEFTVPGSKSTATISRLYRRVDYTITVYAVTGRGESPASSKPISINYYRSA
binds	SEQ ID NO 97 (designed binder) VSDVPRDLEVVAATPTSLLISWDAPAVTVRYYRITYGEQRYLRQEFTVPGSKSTATISSRSARVDYTITVYAVTGRGESPASSKPISINYPYSA
binds	SEQ ID NO 96 (designed binder) VSDVPRDLEVVAATPTSLLISWDAPAVTVRYYRITYGEYHYSEQEFTVPGSKSTATISYYEPRVDYTITVYAVTGRGESPASSKPISINYHSSR
binds	SEQ ID NO 91 (designed binder) VSDVPRDLEVVAATPTSLLISWDAPAVTVRYYRITYGEYQRSRQEFTVPGSKSTATISSYGGYVDYTITVYAVTGRGESPASSKPISINYRSLR
binds	SEQ ID NO 92 (designed binder) VSDVPRDLEVVAATPTSLLISWDAPAVTVRYYRITYGEYERYRQEFTVPGSKSTATISSQSRYVDYTITVYAVTGRGESPASSKPISINYGRPA

Reference: patent US9296810 (Novartis, dated 2016)
